Source: patent US20040142379A1 (CARLSBERG RESEARCH LABORATORY, published 2004)
Positions of bridges follow the written chain, without caps; N, C: chain ends. Non-standard residues stand in square brackets, D forms with d. Primed or numbered codes have the meaning given here. No end group written: not given here. T(Sa)″ = not defined here

Columns and labels:
Experiment in all cases: on-bead capture from E. coli membrane protein extract; tryptic digest, MALDI peptide mass fingerprint
[1] = biological target: T1, glutamine tRNA synthetase (Escherichia coli, UniProt P00962 2-554)
T1 sequence (looked up): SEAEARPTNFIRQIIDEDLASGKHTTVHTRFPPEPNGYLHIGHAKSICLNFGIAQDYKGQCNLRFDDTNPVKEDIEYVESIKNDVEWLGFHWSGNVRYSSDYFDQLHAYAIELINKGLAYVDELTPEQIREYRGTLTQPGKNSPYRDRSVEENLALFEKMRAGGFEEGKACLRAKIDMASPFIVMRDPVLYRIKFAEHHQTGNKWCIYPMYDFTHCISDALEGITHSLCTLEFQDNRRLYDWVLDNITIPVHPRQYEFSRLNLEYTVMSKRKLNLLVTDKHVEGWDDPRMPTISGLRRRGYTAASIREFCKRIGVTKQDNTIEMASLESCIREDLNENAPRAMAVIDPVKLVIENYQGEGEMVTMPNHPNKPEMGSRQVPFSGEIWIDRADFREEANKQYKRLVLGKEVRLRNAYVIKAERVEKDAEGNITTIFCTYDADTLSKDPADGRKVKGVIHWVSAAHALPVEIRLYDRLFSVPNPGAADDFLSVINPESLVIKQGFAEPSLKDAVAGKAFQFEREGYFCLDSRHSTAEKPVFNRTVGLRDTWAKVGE

[2] = biological target: UDP-glucose dehydrogenase (Escherichia coli, UniProt P76373 1-388)
[3] = biological target: T2, Biotin synthetase (Escherichia coli, UniProt P12996 1-346)
T2 sequence (looked up): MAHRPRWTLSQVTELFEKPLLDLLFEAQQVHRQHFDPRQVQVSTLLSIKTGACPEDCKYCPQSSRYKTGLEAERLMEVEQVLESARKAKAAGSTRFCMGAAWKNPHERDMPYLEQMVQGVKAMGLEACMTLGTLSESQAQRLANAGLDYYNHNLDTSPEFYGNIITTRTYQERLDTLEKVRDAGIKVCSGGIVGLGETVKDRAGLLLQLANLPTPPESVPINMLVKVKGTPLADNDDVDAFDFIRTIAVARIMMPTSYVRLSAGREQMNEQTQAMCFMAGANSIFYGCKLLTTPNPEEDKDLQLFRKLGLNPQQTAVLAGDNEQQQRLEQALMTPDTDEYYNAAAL

[4] = biological target: T3, citrate synthetase (Escherichia coli, UniProt P0ABH7 1-427)
T3 sequence (looked up): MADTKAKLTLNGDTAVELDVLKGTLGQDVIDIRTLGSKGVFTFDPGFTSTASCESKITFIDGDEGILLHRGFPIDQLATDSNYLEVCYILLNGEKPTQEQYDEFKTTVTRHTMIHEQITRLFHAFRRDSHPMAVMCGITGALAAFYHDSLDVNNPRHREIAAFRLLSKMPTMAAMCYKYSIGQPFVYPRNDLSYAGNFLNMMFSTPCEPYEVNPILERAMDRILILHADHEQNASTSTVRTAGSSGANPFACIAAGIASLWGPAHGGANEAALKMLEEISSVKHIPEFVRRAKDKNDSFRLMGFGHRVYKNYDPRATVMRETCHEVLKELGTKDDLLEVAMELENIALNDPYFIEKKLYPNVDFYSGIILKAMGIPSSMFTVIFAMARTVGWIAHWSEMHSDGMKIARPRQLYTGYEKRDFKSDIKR

[5] = biological target: T4, NAD-dependent 7-alpha-hydroxysteriod dehydrogenase (Escherichia coli, UniProt P0AET8 1-255)
T4 sequence (looked up): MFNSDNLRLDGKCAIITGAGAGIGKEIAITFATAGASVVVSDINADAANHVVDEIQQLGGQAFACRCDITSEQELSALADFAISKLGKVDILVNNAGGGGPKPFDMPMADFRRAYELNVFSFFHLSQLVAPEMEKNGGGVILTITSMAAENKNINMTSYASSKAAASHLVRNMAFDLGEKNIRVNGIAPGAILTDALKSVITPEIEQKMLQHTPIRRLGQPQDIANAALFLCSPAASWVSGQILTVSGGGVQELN

[6] = biological target: isopropyl malate dehydrogenase (Escherichia coli, UniProt P30125 2-363)
Chain of isopropyl malate dehydrogenase (P30125 2-363 limits assumed): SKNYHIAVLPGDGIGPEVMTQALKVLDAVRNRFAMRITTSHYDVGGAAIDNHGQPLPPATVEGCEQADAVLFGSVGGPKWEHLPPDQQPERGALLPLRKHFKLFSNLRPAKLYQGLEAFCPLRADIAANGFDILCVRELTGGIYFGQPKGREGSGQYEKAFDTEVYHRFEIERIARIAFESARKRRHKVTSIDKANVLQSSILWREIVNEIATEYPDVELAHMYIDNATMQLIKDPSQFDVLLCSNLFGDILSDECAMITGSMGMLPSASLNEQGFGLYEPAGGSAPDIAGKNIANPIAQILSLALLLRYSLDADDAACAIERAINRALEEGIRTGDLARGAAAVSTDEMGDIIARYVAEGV

[7] = biological target: T5, Mannose-1-phosphate guanyl transferase (Escherichia coli, UniProt P24174 1-478)
T5 sequence (looked up): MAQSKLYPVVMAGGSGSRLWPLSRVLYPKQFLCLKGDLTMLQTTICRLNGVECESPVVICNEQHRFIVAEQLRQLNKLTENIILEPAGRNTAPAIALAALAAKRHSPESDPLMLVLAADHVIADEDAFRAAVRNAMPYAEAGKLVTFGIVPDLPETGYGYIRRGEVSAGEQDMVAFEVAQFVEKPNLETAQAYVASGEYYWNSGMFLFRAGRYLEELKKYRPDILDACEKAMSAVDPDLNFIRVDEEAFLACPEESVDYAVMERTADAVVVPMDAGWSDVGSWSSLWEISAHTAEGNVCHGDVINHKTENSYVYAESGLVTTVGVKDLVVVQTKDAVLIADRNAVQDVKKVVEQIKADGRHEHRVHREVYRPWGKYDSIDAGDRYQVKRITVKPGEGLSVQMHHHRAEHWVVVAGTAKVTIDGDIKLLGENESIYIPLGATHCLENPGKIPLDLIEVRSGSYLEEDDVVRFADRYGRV

B1: T(Sa)-G-V-F-L (peptide)
peptide: [T(Sa)″]GVFL
modifications: lactam N-1; reading uncertain; also: printed as T(Sa)-G-V-F-L
notes: Library 2 ligand, resynthesised on PEGA4000 resin bead
Q: Does B1 bind [1]?
A: binds

B2: T(Sa)-Y-S-M-P (peptide)
peptide: [T(Sa)″]YSMP
modifications: lactam N-1; reading uncertain; also: printed as T(Sa)-Y-S-M-P
notes: as for B1
Q: Does B2 bind [2]?
A: binds

Q: Does B2 bind [3]?
A: binds

B3: T(Sa)-L-S-W-W (peptide)
peptide: [T(Sa)″]LSWW
modifications: lactam N-1; reading uncertain; also: printed as T(Sa)-L-S-W-W
notes: as for B1
Q: Does B3 bind [4]?
A: binds

Q: Does B3 bind [5]?
A: binds

B4: T(Sa)-H-W-H-I (peptide)
peptide: [T(Sa)″]HWHI
modifications: lactam N-1; reading uncertain; also: printed as T(Sa)-H-W-H-I
notes: as for B1
Q: Does B4 bind [6]?
A: binds

Q: Does B4 bind [7]?
A: binds
